Earlier results as cited in patent publication US7696205B2, “Cyclic derivatives as modulators of chemokine receptor activity” (Bristol-Myers Squibb Company, priority 2003, dated 2010).

System: MCP-1 expression in peripheral blood mononuclear cells
Settings: effective therapy in human multiple sclerosis

B1: interferon b-1b: effective therapy in human multiple sclerosis (protein, UniProt P01574 22-187, looked up, variant C17S)
Interferon beta: MSYNLLGFLQRSSNFQSQKLLWQLNGRLEYCLKDRMNFDIPEEIKQLQQFQKEDAALTIYEMLQNIFAIFRQDSSSTGWNETIVENLLANVYHQINHLKTVLEEKLEKEDFTRGKLMSSLHLKRYYGRILHYLKAKEYSHCAWTIVRVEILRNFYFINRLTGYLRN
  effect on MCP-1 expression in peripheral blood mononuclear cells: reduces MCP-1 expression
